The values that follow come from US20220389077A1, “ALLOGENEIC CELL COMPOSITIONS AND METHODS OF USE” (Poseida Therapeutics, Inc., priority 2018, published 2022).

The test system of assay [1] is Allo CAR-T cells. The assay can be described thus: Expansion of Allo CAR-T cells with WT or mutant (D111H) CSR CD2z. The format is cell-based, human. To be noted: up to 15-day culture; CSR stable or transient. The source says: FIG. 24A is a bar graph showing that the delivery of CSR CD2z-D111H mutant enhances the expansion of Allo CAR-T cells. Pan T cells isolated from healthy donor blood were genetically modified using the piggyBac® DNA modification system in combination with the Cas-CLOVER™ gene-editing system (CC) for the production of allogeneic (Allo) CAR-T cells, or without CC gene-editing, as a control, for the production of autologous (Auto) CAR-T without a CSR (No CSR); auto CAR-T cells were produced by nucleofection of an mRNA encoding the super piggyBac™ transposase enzyme (SPB) and a transposon encoding a CAR, selection gene and a safety switch. […] Following EP, all cells were subsequently stimulated with a cocktail of agonist mAbs anti-CD2, anti-CD3 and anti-CD28, and were later selected for genetic modification over the course of up to a 15-day culture period using the selection gene. At the end of the initial culture period, all T cells expressed the CAR, indicating successful selection for genetically-modified cells (data not shown), and then all non-edited TCR-positive cells were depleted via negative selection to yield a population of Allo CAR-T cells that were >99% TCR-negative (data not shown).

Assay [2] addresses T1, human CD48 (Homo sapiens, UniProt P09326).
T1 construct: expressed in transfected cells; host or cells: K562 or Rat2 cells, electroporated/lipofected with mRNA
T1 sequence (P09326 27-220): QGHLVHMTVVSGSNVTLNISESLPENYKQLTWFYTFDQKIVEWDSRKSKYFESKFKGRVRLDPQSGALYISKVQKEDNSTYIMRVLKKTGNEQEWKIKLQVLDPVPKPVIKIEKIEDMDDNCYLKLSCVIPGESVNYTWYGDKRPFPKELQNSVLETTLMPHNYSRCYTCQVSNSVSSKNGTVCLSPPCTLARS
The assay can be described thus: T cell degranulation (CD107a) against cells overexpressing CD48. The format is cell-based. The settings on record: 4-6 hours coculture; K562 or Rat2 cells. As to the method:
(§1) FIG. 23D is a series of flow cytometry plots showing the expression of CD48, CD58 or CD59 on K562 and Rat2 cells. To confirm possible ligands for the CSR WT CD2z molecule, a panel of known and suspected ligands including human CD48, CD58, and CD59 were tested. Degranulation of engineered T cells was evaluated against the cell lines K562 and Rat2 that were made to overexpress the target ligands and confirmed for expression by FACS staining. Red histograms are unstained cells and blue histograms are cells that were electroporated/lipofected with mRNA and then stained for expression of the respective marker by FACS.
FIG. 23E is a bar graph showing that CSR CD2z recognizes human CD58, but not CD48 or CD59. To confirm possible ligands for the CSR WT CD2z molecule, a panel of known and suspected ligands including human CD48, CD58, and CD59 were tested. Degranulation of engineered T cells was evaluated against the cell lines K562 and Rat2 that were made to overexpress the target ligands and confirmed for expression by FACS staining. Cells were electroporated/lipofected with mRNA and then stained for expression of the respective marker by FACS. […] T cell degranulation is a surrogate of T cell killing that can be measured by FACS staining for intracellular CD107a expression following coculture with target cell lines expressing target antigen. […]

The target of assay [3] is T2, human CD58 (Homo sapiens, UniProt P19256).
T2 construct: expressed in transfected cells; host or cells: K562 (electroporated) or Rat2 (lipofected) cells
T2 sequence (P19256 29-250): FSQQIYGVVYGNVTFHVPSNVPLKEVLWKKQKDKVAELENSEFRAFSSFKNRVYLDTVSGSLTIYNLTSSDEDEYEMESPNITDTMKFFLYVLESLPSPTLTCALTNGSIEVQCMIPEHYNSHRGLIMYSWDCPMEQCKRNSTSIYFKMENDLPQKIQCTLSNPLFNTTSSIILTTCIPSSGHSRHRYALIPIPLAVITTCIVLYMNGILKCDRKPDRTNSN
As to the kind of experiment: T cell degranulation (CD107a) against CD58-positive cell targets. Type of assay: cell-based. The settings on record: 4-6 hours coculture; K562 or Rat2 cells with mRNA encoding human CD58. As to the method:
FIG. 23B is a series of bar graphs showing CSR CD2z mutant degranulation data. The panel of CSR CD2z mutants was tested for the capability of mediating degranulation against CD58-positive cell targets. T cell degranulation is a surrogate of T cell killing that can be measured by FACS staining for intracellular CD107a expression following coculture with target cell lines expressing target antigen. Specifically, pan T cells from normal blood donors were stimulated with anti-CD3/anti-CD28 beads in standard T cell culture media, then rested. These cells were then electroporated (BTX ECM 830 electroporator @ 500V for 700 μs) with 9 μg of mRNA expressing CSR CD2z mutants and cultured overnight. The next day, the cells were cocultured for 4-6 hours in the presence of various target cell lines. Positive target cell lines included K562 cells or Rat2 cells that were electroporated or lipofected, respectively, with mRNA encoding human CD58, while negative controls were either Rat2 cells that were not electroporated or CSR CD2z mutant expressing T cells alone.
FIG. 23C is a summary of staining and degranulation data. Data from surface-expression and binding studies, as well as those from degranulation experiments for each CSR CD2z mutant is summarized in the table.
as §1
FIG. 23E is a bar graph showing that CSR CD2z recognizes human CD58, but not CD48 or CD59. To confirm possible ligands for the CSR WT CD2z molecule, a panel of known and suspected ligands including human CD48, CD58, and CD59 were tested. Degranulation of engineered T cells was evaluated against the cell lines K562 and Rat2 that were made to overexpress the target ligands and confirmed for expression by FACS staining. Cells were electroporated/lipofected with mRNA and then stained for expression of the respective marker by FACS. As a control, a BCMA CAR was included as well as a K562 cell line overexpressing BCMA. In addition, T cells transfected with GFP were also included as a control. T cell degranulation is a surrogate of T cell killing that can be measured by FACS staining for intracellular CD107a expression following coculture with target cell lines expressing target antigen. Pan T cells from normal blood donors were stimulated with anti-CD3/anti-CD28 beads in standard T cell culture media, then rested. These T cells were then electroporated with mRNA expressing CSR WT CD2z, BCMA CAR, or GFP and cultured overnight. The next day, the cells were cocultured for 4-6 hours in the presence of the various target cell lines that were electroporate/lipofected with mRNA encoding human CD48, CD58 or CD59, while negative controls were either K562 or Rat2 cells that were not electroporated/lipofected, or each of the electroporated T cells alone.

B1: CD2z CSR: chimeric stimulatory receptor: CD2 signal peptide, extracellular, transmembrane and cytoplasmic domains with CD3z intracellular domain (SEQ ID NO: 17062) (protein)
chain: MSFPCKFVASFLLIFNVSSKGAVSKEITNALETWGALGQDINLDIPSFQMSDDIDDIKWEKTSDKKKIAQFRKEKETFKEKDTYKLFKNGTLKIKHLKTDDQDIYKVSIYDTKGKNVLEKIFDLKIQERVSKPKISWTCINTTLTCEVMNGTDPELNLYQDGKHLKLSQRVITHKWTTSLSAKFKCTAGNKVSKESSVEPVSCPEKGLDIYLIIGICGGGSLLMVFVALLVFYITKRKKQRSRRNDEELETRAHRVATEERGRKPHQIPASTPQNPATSQHPPPPPGHRSQAPSHRPPPPGHRVQHQPQKRPPAPSGTQVHQQKGPPLPRPRVQPKPPHGAAENSLSPSSNRVKFSRSADAPAYKQGQNQLYNELNLGRREEYDVLDKRRGRDPEMGGKPRRKNPQEGLYNELQKDKMAEAYSEIGMKGERRRGKGHDGLYQGLSTATKDTYDALHMQALPPR
As for B1, the “peak expansion of Allo CAR-T cells compared to Allo CAR-T cells produced without a CSR” value in assay [1] is “a greater degree of expansion”. Also, the “degranulation (CD107a) against CD48” value in assay [2] is on record as “not against human CD48 or CD59”. In addition, the “degranulation (CD107a) against CD58” value in assay [3] is on record as “capable of degranulating at levels above background”.
